The text below walks through data of PMC12363175 (2025).

Usually Kd stands for the free concentration of one partner at which half of the binding sites on the other are occupied at equilibrium, for simple one-to-one binding.

The assay concerns the target SARS-CoV-2 PT-RBD (SARS-CoV-2 prototype, UniProt P0DTC2). Nature of the assay: SPR. In general terms: Surface plasmon resonance follows binding to a sensor surface in real time, without labels.

B1: rabbit ACE2 ectodomain fused with mFc (Fc fusion)
chain: QSTIEELAKTFLEKFNQEAEDLSYQSALASWDYNTNITEENVQKMNDAEAKWSAFYEEQSKLAKTYPSQEVQNLTVKRQLQALQQSGSSALSADKSKQLNTILSTMSTIYSTGKVCNQSNPQECFLLEPGLDEIMAKSTDYNERLWAWEGWRSVVGKQLRPLYEEYVVLKNEMARANNYEDYGDYWRADYEAEGADGYDYSRSQLIDDVERTFSEIKPLYEQLHAFVRTKLMDAYPSRISPTGCLPAHLLGDMWGRFWTNLYSLTVPFGQKPNIDVTDTMVNQGWDAERIFKEAEKFFVSVGLPSMTQGFWENSMLTEPGDGRKVVCHPTAWDLGKGDFRIKMCTKVTMDNFLTAHHEMGHIQYDMAYATQPFLLRNGANEGFHEAVGEIMSLSAATPEHLKSIGLLPYDFHEDNETEINFLLKQALTIVGTLPFTYMLEKWRWMVFKGEIPKEQWMQKWWEMKREIVGVVEPMPHDETYCDPAALFHVANDYSFIRYYTRTIYQFQFQEALCQAAQHEGPLHKCDISNSTEAGQKLLNMLRLGRSEPWTLALENVVGAKNMDVRPLLNYFEPLFTWLKEQNRNSFVGWSTEWTPYADQSIKVRISLKTALGDQAYEWNDSEMYLFRSSVAYAMRKYFSEVKNQTILFGEEDVRVSDLKPRISFNFFVTAPNNVNDIIPRNEVEEAISMSRSRINDIFRLDDNSLEFVGIQPTLEPPYESPVP
As for B1, the Kd was found to be 74.8 nM.

B2: horse ACE2 ectodomain fused with mFc (Fc fusion)
chain: QSTTEDLAKTFLEKFNSEAEELSHQSSLASWSYNTNITDENVQKMNEAGARWSAFYEEQCKLAKTYPLEEIQNLTVKRQLQALQQSGSSVLSADKSKRLNEILNTMSTIYSTGKVCNPSNPQECLLLEPGLDAIMENSKDYNQRLWAWEGWRSEVGKQLRPLYEEYVVLKNEMARANNYEDYGDYWRGDYEAEGPSGYDYSRDQLIEDVERTFAEIKPLYEHLHAYVRAKLMDTYPSHINPTGCLPAHLLGDMWGRFWTNLYSLTVPFGQKPNIDVTDAMVDQSWDAKRIFEEAEKFFVSVGLPNMTQGFWENSMLTEPGDGRKVVCHPTAWDLGKGDFRIKMCTKVTMDDFLTAHHEMGHIQYDMAYAVQPYLLRNGANEGFHEAVGEIMSLSAATPNHLKAIGLLPPDFYEDSETEINFLLKQALTIVGTLPFTYMLEKWRWMVFKGEIPKEEWMKKWWEMKREIVGVVEPVPHDETYCDPAALFHVANDYSFIRYYTRTIYQFQFQEALCQTAKHEGPLHKCDISNSTEAGQKLLQMLSLGKSEPWTLALERIVGVKNMDVRPLLNYFEPLFTWLKDQNKNSFVGWSTNWSPYADQSIKVRISLKSALGEKSYEWNDNEMYLFQSSVAYAMRVYFLKAKNQTILFGEEDVWVSDLKPRISFNFFVTSPKNASDIIPRTDVEEAIRMSRSRINDAFRLDDNTLEFLGIQPTLGPPYQPPVT
Consider B2, for which binding was characterised by a dissociation constant (Kd) of 64.4 nM.

B3: raccoon dog ACE2 ectodomain fused with mFc (Fc fusion)
chain: QSTEDLVNTFLEKFNYEAEELSYQSSLASWNYNTNITDENLQKMNNAGAKWSAFYEEQSKLAKTYPLEEIQDSTVKRQLRALQHSGSSVLSADKNQRLNTILNSMSTIYSTGKACNPSNPQECLLLEPGLDDIMENSKDYNERLWAWEGWRSEVGKQLRPLYEEYVALKNEMARANNYEDYGDYWRGDYEEEWENGYNYSRNQLIDDVEHTFTQIMPLYQHLHAYVRTKLMDTYPSYISPTGCLPAHLLGDMWGRFWTNLYPLTVPFGQKPNIDVTNAMVNQSWDARKIFKEAEKFFVSVGLPNMTQGFWENSMLTEPSDSWKVVCHPTAWDLGRGDFRIKMCTKVTMDDFLTAHHEMGHIQYDMAYAAQPFLLRNGANEGFHEAVGEIMSLSAATPNHLKNIGLLPPSFFEDSETEINFLLKQALTIVGTLPFTYMLEKWRWMVFKGEIPKDQWMKTWWEMKRNIVGVVEPVPHDETYCDPASLFHVANDYSFIRYYTRTIYQFQFQEALCQIAKHEGPLHKCDISNSSEAGQKLLEMLKLGKSKPWTYALEIVVGAKNMDVRPLLNYFEPLFTWLKEQNRNSFVGWNTDWSPYADQSIKVRISLKSALGEKAYEWNNNEMYLFRSSIAYAMRQYFSEVKNQTIPFVEDNVWVSDLKPRISFNFFVTSPGNVSDIIPRTEVEEAIRMYRSRINDVFRLDDNSLEFLGIQPTLGPPYEPPVT
Take B3: the Kd is 424 nM.

B4: dog ACE2 ectodomain fused with mFc (Fc fusion)
chain: QSTEDLVKTFLEKFNYEAEELSYQSSLASWNYNINITDENVQKMNNAGAKWSAFYEEQSKLAKTYPLEEIQDSTVKRQLRALQHSGSSVLSADKNQRLNTILNSMSTIYSTGKACNPSNPQECLLLEPGLDDIMENSKDYNERLWAWEGWRSEVGKQLRPLYEEYVALKNEMARANNYEDYGDYWRGDYEEEWENGYNYSRNQLIDDVEHTFTQIMPLYQHLHAYVRTKLMDTYPSYISPTGCLPAHLLGDMWGRFWTNLYPLTVPFGQKPNIDVTNAMVNQSWDARKIFKEAEKFFVSVGLPNMTQEFWENSMLTEPSDSRKVVCHPTAWDLGKGDFRIKMCTKVTMDDFLTAHHEMGHIQYDMAYAAQPFLLRNGANEGFHEAVGEIMSLSAATPNHLKNIGLLPPSFFEDSETEINFLLKQALTIVGTLPFTYMLEKWRWMVFKGEIPKDQWMKTWWEMKRNIVGVVEPVPHDETYCDPASLFHVANDYSFIRYYTRTIYQFQFQEALCQIAKHEGPLHKCDISNSSEAGQKLLEMLKLGKSKPWTYALEIVVGAKNMDVRPLLNYFEPLFTWLKEQNRNSFVGWNTDWSPYADQSIKVRISLKSALGEKAYEWNNNEMYLFRSSIAYAMRQYFSEVKNQTIPFVEDNVWVSDLKPRISFNFFVTSPGNVSDIIPRTEVEEAIRMYRSRINDVFRLDDNSLEFLGIQPTLGPPYEPPVT
In the case of B4, the dissociation constant Kd stood at 299 nM.

B5: fox ACE2 ectodomain fused with mFc (Fc fusion)
chain: QSTEDLVNTFLEKFNYEAEELSYQSSLASWDYNTNISDENVQKMNNAGAKWSAFYEEQSKLAKTYPLEEIQDSTVKRQLRALQHSGSSVLSADKNQRLNTILNSMSTIYSTGKACNPSNPQECLLLEPGLDDIMENSKDYNERLWAWEGWRSEVGKQLRPLYEEYVALKNEMARANNYEDYGDYWRGDYEEEWENGYNYSRNQLIDDVEHTFTQIMPLYQHLHAYVRTKLMDTYPSYISPTGCLPAHLLGDMWGRFWTNLYPLTVPFGQKPNIDVTNAMVNQSWDARKIFKEAEKFFVSVGLPNMTQGFWENSMLTEPSDSRKVVCHPTAWDLGKGDFRIKMCTKVTMDDFLTAHHEMGHIQYDMAYAAQPFLLRNGANEGFHEAVGEIMSLSAATPNHLKNIGLLPPSFFEDSETEINFLLKQALTIVGTLPFTYMLEKWRWMVFKGEIPKDQWMKTWWEMKRNIVGVVEPVPHDETYCDPASLFHVANDYSFIRYYTRTIYQFQFQEALCQIAKHEGPLHKCDISNSSEAGQKLLEMLKLGKSKPWTYALEIVVGAKNMDVRPLLNYFEPLFTWLKEQNRNSFVGWNTDWSPYADQSIKVRISLKSALGEKAYEWNNNEMYLFRSSIAYAMRRYFSEVKKQTIPFVEDNVWVSDLKPRISFNFFVTSPGNVSDIIPRTEVEKAIRMYRGRINDVFRLDDNSLEFLGIQPTLGPPYEPPVT
B5 yielded a Kd of 59.2 nM.

B6: goat ACE2 ectodomain fused with mFc (Fc fusion)
chain: QSTTEEQAKTFLEKFNHEAEDLSYQSSLASWNYNTNITDENVQKMNEARAKWSAFYEEQSRMARTYSLEEIQNLTLKRQLKALQHSGTSVLSAEKSKRLNTILNKMSTIYSTGKVLDPNTQECLALEPGLDDIMENSRDYNRRLWAWEGWRAEVGKQLRPLYEEYVVLENEMARANNYEDYGDYWRGDYEVTGAGDYDYSRDQLMKDVERTFAEIKPLYEQLHAYVRAKLMNTYPSYISPTGCLPAHLLGDMWGRFWTNLYSLTVPFEHKPSIDVTEKMKNQSWDAERIFKEAEKFFVSIGLPYMTQGFWNNSMLTEPGDGRKVVCHPTAWDLGKGDFRIKMCTKVTMDDFLTAHHEMGHIQYDMAYATQPYLLRNGANEGFHEAVGEIMSLSAATPHYLKALGLLAPDFYEDNETEINFLLKQALTIVGTLPFTYMLEKWRWMVFKGEIPKQQWMEKWWEMKREIVGVVEPLPHDETYCDPACLFHVAEDYSFIRYYTRTIYQFQFHEALCKTAKHEGALFKCDISNSTEAGQRLLQMLRLGKSEPWTLALENIVGIKTMDVKPLLNYFEPLFTWLKEQNRNSFVGWSTEWTPYSDQSIKVRISLKSALGENAYEWNDNEMYLFRSSVAYAMRKYFLEDRNETIPFGEENVWVSDKKPRISFKFFVTSPNNVSDIIPRTEVENAIRLCRDRINDAFQLDDNSLEFLGIQPTLRPPYEPP
In the case of B6, the dissociation constant Kd came to 451 nM.

B7: pig ACE2 ectodomain fused with mFc (Fc fusion)
chain: QSTTEELAKTFLEKFNLEAEDLAYQSSLASWNYNTNITDENIQKMNDARAKWSAFYEEQSRIAKTYPLDEIQTLILKRQLQALQQSGTSGLSADKSKRLNTILNTMSTIYSSGKVLDPNNPQECLVLEPGLDEIMENSKDYSRRLWAWESWRAEVGKQLRPLYEEYVVLENEMARANNYEDYGDYWRGDYEVTGTGDYDYSRNQLMEDVERTFAEIKPLYEHLHAYVRAKLMDAYPSRISPTGCLPAHLLGDMWGRFWTNLYPLTVPFGEKPSIDVTEAMVNQSWDAIRIFEEAEKFFVSIGLPNMTQGFWNNSMLTEPGDGRKVVCHPTAWDLGKGDFRIKMCTKVTMDDFLTAHHEMGHIQYDMAYAIQPYLLRNGANEGFHEAVGEIMSLSAATPHYLKALGLLPPDFYEDSETEINFLLKQALTIVGTLPFTYMLEKWRWMVFKGEIPKEQWMQKWWEMKREIVGVVEPLPHDETYCDPACLFHVAEDYSFIRYYTRTIYQFQFHEALCRTAKHEGPLYKCDISNSTEAGQKLLQMLSLGKSEPWTLALENIVGVKTMDVKPLLSYFEPLLTWLKAQNGNSSVGWNTDWTPYADQSIKVRISLKSALGKEAYEWNDNEMYLFRSSIAYAMRNYFSSAKNETIPFGAEDVWVSDLKPRISFNFFVTSPANMSDIIPRSDVEKAISMSRSRINDAFRLDDNTLEFLGIQPTLGPPDEPP
As to B7, the Kd amounted to 175 nM.

B8: Chinese hamster ACE2 ectodomain fused with mFc (Fc fusion)
chain: QSIIEEQAKTFLDKFNQEAEDLSYQSALASWNYNTNITEENAQKMNEAAAKWSAFYEEQSKLAKNYSLQEVQNLIIKRQLQALQQSGSSALSADKNKQLNTILNTMSTIYSTGKVCNPKNPQECLLLEPGLDDIMATSTDYNERLWAWEGWRAEVGKQLRPLYEEYVVLKNEMARANNYKDYGDYWRGDYEAEGADGYNYNGNQLIEDVERTFKEIKPLYEQLHAYVRTKLMDTYPSFISPTGCLPAHLLGDMWGRFWTNLYPLTVPFGQKPNIDVTDAMVNQGWDAERIFKEAEKFFVSVGLPHMTQGFWGNSMLTDPGDDRKVVCHPTAWDLGKGDFRIKMCTKVTMDNFLTAHHEMGHIQYDMAYATQPFLLRNGANEGFHEAVGEIMSLSAATPKHLKSIGLLPSNFHEDNETEINFLLKQALTIVGTLPFTYMLEKWRWMVFKGDIPKEKWMEKWWEMKREIVGVVEPLPHDETYCDPAALFHVSNDYSFIRYYTRTIYQFQFQEALCQAAKHDGPLHKCDISNSTEAGQKLLNMLRLGKSEPWTLALENVVGARNMDVRPLLNYFEPLSVWLKEQNKNSFVGWNTDWSPYADQSIKVRISLKSALGENAYEWNDNEMYLFRATVAYAMRVYFAKNKTQTVLFGVEDIRVSDLKPRVSFNFFVTSPQNVSDIIPRNEVEEAVRFSRGRINDVFGLDDNSLEFLGINPTLAPPYQPPVT
As for B8, binding was characterised by a dissociation constant (Kd) of 69.4 nM.
